Measurements published in publication PMC12770985.

How the values were obtained:
[1] = target: Gerd_aPriL1, non-catalytic primase subunit PriL (Loki group) of Candidatus Gerdarchaeota archaeon B18_G1 (Candidatus Gerdarchaeota archaeon B18_G1); experiment: SPR; BIACORE, CM5 chip; Gerd_ePriL or Gerd_aPriL1 immobilised, Gerd_ePriS concentration gradient (methods; the legend of Figure 3 tells the reverse); 20 mM Hepes pH 7.5, 500 mM NaCl, 0.005% Tween 20, 30 uL/min, 25 °C
[2] = target: Gerd_ePriL, non-catalytic primase subunit PriL (Heimdall group) of Candidatus Gerdarchaeota archaeon B18_G1 (Candidatus Gerdarchaeota archaeon B18_G1); experiment: as above

For “Gerd_ePriS, catalytic primase subunit PriS of Candidatus Gerdarchaeota archaeon B18_G1 (enzyme)”, the Kd [1] was 105 nM and the Kd [2] was 2.67 nM.
